Source: article PMC9482650, “Quantitative fragmentomics allow affinity mapping of interactomes” (Nature Communications, 2022)

T1: APBA2_1, Q99767
T1 sequence (Q99767 563-664, limits assumed, looked up): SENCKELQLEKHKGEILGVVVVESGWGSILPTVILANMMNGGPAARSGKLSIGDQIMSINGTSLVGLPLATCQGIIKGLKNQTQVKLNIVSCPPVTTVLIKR

T2: APBA3_1, O96018
T2 sequence (O96018 389-490, limits assumed, looked up): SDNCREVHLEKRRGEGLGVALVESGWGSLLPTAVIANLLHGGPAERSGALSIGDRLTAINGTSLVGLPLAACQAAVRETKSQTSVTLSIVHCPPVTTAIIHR

T3: ARHGAP21, Q5T5U3
T3 sequence (Q5T5U3 45-169, limits assumed, looked up): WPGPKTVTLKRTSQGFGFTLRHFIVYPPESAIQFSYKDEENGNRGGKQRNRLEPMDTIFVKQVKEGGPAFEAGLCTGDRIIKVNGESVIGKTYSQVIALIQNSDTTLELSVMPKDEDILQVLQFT

T4: DLG3_1, Q92796
T4 sequence (Q92796 125-227, limits assumed, looked up): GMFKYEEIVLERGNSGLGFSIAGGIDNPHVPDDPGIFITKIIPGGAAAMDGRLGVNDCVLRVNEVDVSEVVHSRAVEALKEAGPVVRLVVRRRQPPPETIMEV

T5: DLG3_2, Q92796
T5 sequence (Q92796 221-321, limits assumed, looked up): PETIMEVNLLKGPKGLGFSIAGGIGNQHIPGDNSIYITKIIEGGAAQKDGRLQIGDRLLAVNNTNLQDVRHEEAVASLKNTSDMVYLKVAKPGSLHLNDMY

T6: DVL3, Q92997
T6 sequence (Q92997 244-331, limits assumed, looked up): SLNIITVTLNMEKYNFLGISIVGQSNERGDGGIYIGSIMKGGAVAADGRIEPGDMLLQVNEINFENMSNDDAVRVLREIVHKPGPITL

T7: FRMPD1, Q5SYB0
T7 sequence (Q5SYB0 52-145, limits assumed, looked up): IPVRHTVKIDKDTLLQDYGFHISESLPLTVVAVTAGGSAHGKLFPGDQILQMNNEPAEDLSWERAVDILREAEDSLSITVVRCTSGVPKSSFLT

T8: GRIP1_5, Q9Y3R0
T8 sequence (Q9Y3R0 568-668, limits assumed, looked up): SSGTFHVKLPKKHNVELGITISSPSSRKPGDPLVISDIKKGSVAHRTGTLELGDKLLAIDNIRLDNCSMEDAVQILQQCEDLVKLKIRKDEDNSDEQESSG

T9: PDZD7_3, Q9H5P4
T9 sequence (Q9H5P4 857-944, limits assumed, looked up): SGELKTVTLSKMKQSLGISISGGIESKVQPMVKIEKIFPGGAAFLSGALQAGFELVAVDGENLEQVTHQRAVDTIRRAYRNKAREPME

T10: SHANK1, Q9Y566
T10 sequence (Q9Y566 658-767, limits assumed, looked up): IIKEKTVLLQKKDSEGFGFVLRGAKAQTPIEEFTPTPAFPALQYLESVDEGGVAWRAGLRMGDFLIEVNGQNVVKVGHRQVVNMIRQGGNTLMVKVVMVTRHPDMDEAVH

T11: SNTB1, Q13884
T11 sequence (Q13884 107-205, limits assumed, looked up): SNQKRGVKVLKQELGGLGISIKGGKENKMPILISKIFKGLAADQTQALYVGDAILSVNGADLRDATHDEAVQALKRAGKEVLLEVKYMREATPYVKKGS

T12: SYNJ2BP, P57105
T12 sequence (P57105 8-110, limits assumed, looked up): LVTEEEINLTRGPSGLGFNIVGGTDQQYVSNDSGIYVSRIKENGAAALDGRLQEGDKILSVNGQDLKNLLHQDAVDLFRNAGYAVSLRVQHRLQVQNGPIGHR

T13: TJP3_3, O95049
T13 sequence (O95049 375-456, limits assumed, looked up): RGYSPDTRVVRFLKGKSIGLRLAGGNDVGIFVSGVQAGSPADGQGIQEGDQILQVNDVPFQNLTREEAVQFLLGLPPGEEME

B1: PALLS, Q8WX93;Q8WX93-1 (peptide)
chain: NTALVESEDL
B2: SLC9A3, P48764 (peptide)
chain: PAALPESTHM
B3: CLDN10, P78369 (peptide)
chain: SKQFDKNAYV

molecular target: T1, APBA2_1, Q99767; test: holdup assay; design: key: below the threshold = too weak to quantify, mostly under pKd 3.1 to 4; conditions: plain residues with an end cap or a label only (N-terminal biotin on a linker: ado-ado)

pKd | Binder
below the threshold | B1
below the threshold | B2
below the threshold | B3

molecular target: T2, APBA3_1, O96018; test: holdup assay; design: key: below the threshold = too weak to quantify, mostly under pKd 3.1 to 4; conditions: plain residues with an end cap or a label only (N-terminal biotin on a linker: ado-ado)

pKd | Binder
below the threshold | B1
below the threshold | B2
below the threshold | B3

molecular target: T3, ARHGAP21, Q5T5U3; test: holdup assay; design: key: below the threshold = too weak to quantify, mostly under pKd 3.1 to 4; conditions: plain residues with an end cap or a label only (N-terminal biotin on a linker: ado-ado)

pKd | Binder
below the threshold | B1
4.05 | B2
3.84 | B3

molecular target: DLG1_2, Q12959; test: holdup assay; design: key: below the threshold = too weak to quantify, mostly under pKd 3.1 to 4; conditions: plain residues with an end cap or a label only (N-terminal biotin on a linker: ado-ado)
Sequence (Q12959 314-412): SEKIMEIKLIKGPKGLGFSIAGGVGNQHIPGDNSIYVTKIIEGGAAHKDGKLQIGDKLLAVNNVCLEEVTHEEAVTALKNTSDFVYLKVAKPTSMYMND

pKd | Binder
below the threshold | B1
below the threshold | B2
below the threshold | B3

molecular target: T4, DLG3_1, Q92796; test: holdup assay; design: key: below the threshold = too weak to quantify, mostly under pKd 3.1 to 4; conditions: plain residues with an end cap or a label only (N-terminal biotin on a linker: ado-ado)

pKd | Binder
below the threshold | B1
below the threshold | B2
below the threshold | B3

molecular target: T5, DLG3_2, Q92796; test: holdup assay; design: key: below the threshold = too weak to quantify, mostly under pKd 3.1 to 4; conditions: plain residues with an end cap or a label only (N-terminal biotin on a linker: ado-ado)

pKd | Binder
below the threshold | B1
below the threshold | B2
below the threshold | B3

molecular target: T6, DVL3, Q92997; test: holdup assay; design: key: below the threshold = too weak to quantify, mostly under pKd 3.1 to 4; conditions: plain residues with an end cap or a label only (N-terminal biotin on a linker: ado-ado)

pKd | Binder
below the threshold | B1
below the threshold | B2
below the threshold | B3

molecular target: T7, FRMPD1, Q5SYB0; test: holdup assay; design: key: below the threshold = too weak to quantify, mostly under pKd 3.1 to 4; conditions: plain residues with an end cap or a label only (N-terminal biotin on a linker: ado-ado)

pKd | Binder
below the threshold | B1
below the threshold | B2
below the threshold | B3

molecular target: GRID2IP_2, A4D2P6; test: holdup assay; design: key: below the threshold = too weak to quantify, mostly under pKd 3.1 to 4; conditions: plain residues with an end cap or a label only (N-terminal biotin on a linker: ado-ado)
Sequence (A4D2P6 272-370): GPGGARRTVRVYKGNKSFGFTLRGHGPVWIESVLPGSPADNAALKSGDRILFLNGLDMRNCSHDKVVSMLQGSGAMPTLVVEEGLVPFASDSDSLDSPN

pKd | Binder
below the threshold | B1
4.31 | B2
below the threshold | B3

molecular target: T8, GRIP1_5, Q9Y3R0; test: holdup assay; design: key: below the threshold = too weak to quantify, mostly under pKd 3.1 to 4; conditions: plain residues with an end cap or a label only (N-terminal biotin on a linker: ado-ado)

pKd | Binder
below the threshold | B1
below the threshold | B2
below the threshold | B3

molecular target: GRIP2_4, Q9C0E4; test: holdup assay; design: key: below the threshold = too weak to quantify, mostly under pKd 3.1 to 4; conditions: plain residues with an end cap or a label only (N-terminal biotin on a linker: ado-ado)
Sequence (Q9C0E4 446-548): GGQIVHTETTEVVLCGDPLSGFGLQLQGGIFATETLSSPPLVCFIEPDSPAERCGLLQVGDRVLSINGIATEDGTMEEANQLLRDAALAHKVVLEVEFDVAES

pKd | Binder
below the threshold | B1
below the threshold | B2
below the threshold | B3

molecular target: HTRA1, Q92743; test: holdup assay; design: key: below the threshold = too weak to quantify, mostly under pKd 3.1 to 4; conditions: plain residues with an end cap or a label only (N-terminal biotin on a linker: ado-ado)
Sequence (Q92743 360-477): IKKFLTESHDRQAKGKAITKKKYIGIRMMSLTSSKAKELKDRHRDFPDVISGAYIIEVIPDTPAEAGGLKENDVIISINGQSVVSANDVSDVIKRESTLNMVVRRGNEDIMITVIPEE

pKd | Binder
below the threshold | B1
below the threshold | B2
3.97 | B3

molecular target: Inadl_4, Q8NI35; test: holdup assay; design: key: below the threshold = too weak to quantify, mostly under pKd 3.1 to 4; conditions: plain residues with an end cap or a label only (N-terminal biotin on a linker: ado-ado)
Sequence (Q8NI35 547-651): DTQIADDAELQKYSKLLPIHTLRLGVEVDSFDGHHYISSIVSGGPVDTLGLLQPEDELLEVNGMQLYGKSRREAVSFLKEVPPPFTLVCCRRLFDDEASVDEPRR

pKd | Binder
below the threshold | B1
below the threshold | B2
below the threshold | B3

molecular target: Inadl_6, Q8NI35; test: holdup assay; design: key: below the threshold = too weak to quantify, mostly under pKd 3.1 to 4; conditions: plain residues with an end cap or a label only (N-terminal biotin on a linker: ado-ado)
Sequence (Q8NI35 1058-1167): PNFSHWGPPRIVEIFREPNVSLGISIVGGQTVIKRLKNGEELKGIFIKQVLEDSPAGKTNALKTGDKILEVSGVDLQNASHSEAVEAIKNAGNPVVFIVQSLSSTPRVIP

pKd | Binder
below the threshold | B1
below the threshold | B2
below the threshold | B3

molecular target: MAGI2_5, Q86UL8; test: holdup assay; design: key: below the threshold = too weak to quantify, mostly under pKd 3.1 to 4; conditions: plain residues with an end cap or a label only (N-terminal biotin on a linker: ado-ado)
Sequence (Q86UL8 915-1017): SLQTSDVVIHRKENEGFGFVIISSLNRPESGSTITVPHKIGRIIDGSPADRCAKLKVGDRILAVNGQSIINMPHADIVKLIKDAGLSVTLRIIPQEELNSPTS

pKd | Binder
below the threshold | B1
below the threshold | B2
below the threshold | B3

molecular target: MAGI2_6, Q86UL8; test: holdup assay; design: key: below the threshold = too weak to quantify, mostly under pKd 3.1 to 4; conditions: plain residues with an end cap or a label only (N-terminal biotin on a linker: ado-ado)
Sequence (Q86UL8 1141-1229): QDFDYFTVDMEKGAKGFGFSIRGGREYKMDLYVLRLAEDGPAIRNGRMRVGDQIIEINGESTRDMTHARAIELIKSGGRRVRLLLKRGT

pKd | Binder
4.01 | B1
below the threshold | B2
below the threshold | B3

molecular target: MAST1, Q9Y2H9; test: holdup assay; design: key: below the threshold = too weak to quantify, mostly under pKd 3.1 to 4; conditions: plain residues with an end cap or a label only (N-terminal biotin on a linker: ado-ado)
Sequence (Q9Y2H9 962-1065): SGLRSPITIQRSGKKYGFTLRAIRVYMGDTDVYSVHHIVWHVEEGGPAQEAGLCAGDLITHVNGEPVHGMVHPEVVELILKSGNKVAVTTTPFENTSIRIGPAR

pKd | Binder
4.56 | B1
4.63 | B2
below the threshold | B3

molecular target: PDLIM1, O00151; test: holdup assay; design: key: below the threshold = too weak to quantify, mostly under pKd 3.1 to 4; conditions: plain residues with an end cap or a label only (N-terminal biotin on a linker: ado-ado)
Sequence (O00151 1-87): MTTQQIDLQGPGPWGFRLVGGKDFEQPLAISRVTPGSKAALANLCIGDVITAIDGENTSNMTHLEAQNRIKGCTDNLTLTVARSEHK

pKd | Binder
5.47 | B1
below the threshold | B2
below the threshold | B3

molecular target: T9, PDZD7_3, Q9H5P4; test: holdup assay; design: key: below the threshold = too weak to quantify, mostly under pKd 3.1 to 4; conditions: plain residues with an end cap or a label only (N-terminal biotin on a linker: ado-ado)

pKd | Binder
below the threshold | B1
below the threshold | B2
below the threshold | B3

molecular target: SCRIB_2, Q14160; test: holdup assay; design: key: below the threshold = too weak to quantify, mostly under pKd 3.1 to 4; conditions: plain residues with an end cap or a label only (N-terminal biotin on a linker: ado-ado)
Sequence (Q14160 857-960): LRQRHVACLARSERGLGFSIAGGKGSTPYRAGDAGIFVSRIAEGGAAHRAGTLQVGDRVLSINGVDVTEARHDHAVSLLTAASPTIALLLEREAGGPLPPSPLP

pKd | Binder
below the threshold | B1
below the threshold | B2
below the threshold | B3

molecular target: T10, SHANK1, Q9Y566; test: holdup assay; design: key: below the threshold = too weak to quantify, mostly under pKd 3.1 to 4; conditions: plain residues with an end cap or a label only (N-terminal biotin on a linker: ado-ado)

pKd | Binder
below the threshold | B1
4.78 | B2
below the threshold | B3

molecular target: T11, SNTB1, Q13884; test: holdup assay; design: key: below the threshold = too weak to quantify, mostly under pKd 3.1 to 4; conditions: plain residues with an end cap or a label only (N-terminal biotin on a linker: ado-ado)

pKd | Binder
below the threshold | B1
below the threshold | B2
below the threshold | B3

molecular target: T12, SYNJ2BP, P57105; test: holdup assay; design: key: below the threshold = too weak to quantify, mostly under pKd 3.1 to 4; conditions: plain residues with an end cap or a label only (N-terminal biotin on a linker: ado-ado)

pKd | Binder
below the threshold | B2
below the threshold | B3

molecular target: T13, TJP3_3, O95049; test: holdup assay; design: key: below the threshold = too weak to quantify, mostly under pKd 3.1 to 4; conditions: plain residues with an end cap or a label only (N-terminal biotin on a linker: ado-ado)

pKd | Binder
below the threshold | B1
below the threshold | B2
3.68 | B3
